What follows are sequences tested on Escherichia coli TOP10 (assay: shrunken log2 fold change of peptide-encoding DNA abundance (4.5 h post-induction vs induction); higher = less antimicrobial activity (less host growth inhibition)). Details: time post-induction: 4.5 h; library: site-saturation at positions 5, 18, 19, 20.
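Note: peptides expressed intracellularly from a pBAD plasmid library in pooled LB shake-flask culture, induced with 0.3% L-arabinose, DNA abundance read by NGS, three biological replicates, DESeq2 with apeglm shrinkage.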

Sequence	shrunken log2 fold change
RRIRVRPPRLPRPRPRPDNRPRP	-0.00604
RRIRKRPPRLPRPRPRPEIKPRP	0.977
RRIRLRPPRLPRPRPRPFSNPRP	-1.04
RRIRKRPPRLPRPRPRPGFNPRP	0.0583
RRIRCRPPRLPRPRPRPNCTPRP	-0.322
RRIRYRPPRLPRPRPRPVQPPRP	0.219
RRIRARPPRLPRPRPRPWLHPRP	0.144
RRIRERPPRLPRPRPRPNIFPRP	-0.302
RRIRVRPPRLPRPRPRPQFVPRP	-0.122
RRIRYRPPRLPRPRPRPTCMPRP	-0.156
RRIRMRPPRLPRPRPRPEKGPRP	-0.0013
RRIRIRPPRLPRPRPRPERVPRP	0.089
RRIRMRPPRLPRPRPRPKLWPRP	1.41
RRIRFRPPRLPRPRPRPRWQPRP	0.229
RRIRLRPPRLPRPRPRPMFNPRP	-0.524
RRIRRRPPRLPRPRPRPVTGPRP	0.0301
RRIRWRPPRLPRPRPRPYQLPRP	-0.26
RRIRARPPRLPRPRPRPYLTPRP	-0.655
RRIRLRPPRLPRPRPRPCFRPRP	0.0965
RRIRDRPPRLPRPRPRPFKEPRP	0.0108
RRIRPRPPRLPRPRPRPNFYPRP	0.356
RRIRFRPPRLPRPRPRPVMHPRP	-0.461
RRIRCRPPRLPRPRPRPSSTPRP	-0.855
RRIRARPPRLPRPRPRPFPQPRP	0.512
RRIRCRPPRLPRPRPRPEGVPRP	2.48

Sequence	shrunken log2 fold change
RRIRNRPPRLPRPRPRPPAFPRP	0.0832
RRIRFRPPRLPRPRPRPTRLPRP	0.08
RRIRIRPPRLPRPRPRPIGVPRP	-0.0176
RRIRVRPPRLPRPRPRPADHPRP	0.206
RRIRKRPPRLPRPRPRPCWEPRP	0.0666
RRIRGRPPRLPRPRPRPSPPPRP	0.569
RRIRDRPPRLPRPRPRPTYTPRP	0.319
RRIRSRPPRLPRPRPRPNGIPRP	0.033
RRIRLRPPRLPRPRPRPGRGPRP	0.696
RRIRYRPPRLPRPRPRPPITPRP	-0.834
RRIRMRPPRLPRPRPRPGNSPRP	-0.616
RRIRCRPPRLPRPRPRPPETPRP	0.105
RRIRRRPPRLPRPRPRPVERPRP	-0.049
RRIRPRPPRLPRPRPRPDVRPRP	1.79
RRIRPRPPRLPRPRPRPKDGPRP	0.0462
RRIRYRPPRLPRPRPRPPGWPRP	0.167
RRIRVRPPRLPRPRPRPETVPRP	-0.103
RRIRIRPPRLPRPRPRPRYFPRP	-0.769
RRIRIRPPRLPRPRPRPWGKPRP	-0.814
RRIRHRPPRLPRPRPRPGQYPRP	-0.0767
RRIRDRPPRLPRPRPRPCDEPRP	-0.00174
RRIRIRPPRLPRPRPRPTRRPRP	0.298
RRIRMRPPRLPRPRPRPGNKPRP	-0.0821
RRIRCRPPRLPRPRPRPRLWPRP	1.01
RRIRGRPPRLPRPRPRPIHAPRP	0.418

Sequence	shrunken log2 fold change
RRIRHRPPRLPRPRPRPWMVPRP	-0.0202
RRIRERPPRLPRPRPRPFADPRP	-0.192
RRIRRRPPRLPRPRPRPYPGPRP	-0.123
RRIRKRPPRLPRPRPRPPGTPRP	0.794
RRIRVRPPRLPRPRPRPRCWPRP	0.294
RRIRARPPRLPRPRPRPTHEPRP	0.622
RRIRCRPPRLPRPRPRPSFVPRP	-0.68
RRIRMRPPRLPRPRPRPNQEPRP	-0.0314
RRIRMRPPRLPRPRPRPCFVPRP	-0.103
RRIRYRPPRLPRPRPRPPQNPRP	0.191
RRIRYRPPRLPRPRPRPKSKPRP	-0.428
RRIRTRPPRLPRPRPRPMQIPRP	0.08
RRIRWRPPRLPRPRPRPVWHPRP	0.387
RRIRLRPPRLPRPRPRPHYVPRP	-0.169
RRIRGRPPRLPRPRPRPVFEPRP	1.16
RRIRFRPPRLPRPRPRPGRFPRP	-0.223
RRIRFRPPRLPRPRPRPQFEPRP	-0.19
RRIRDRPPRLPRPRPRPMGDPRP	0.25
RRIRRRPPRLPRPRPRPDLYPRP	0.0296
RRIRIRPPRLPRPRPRPASQPRP	-0.073
RRIRCRPPRLPRPRPRPGWRPRP	0.331
RRIRCRPPRLPRPRPRPVLSPRP	-0.192
RRIRSRPPRLPRPRPRPNTHPRP	-0.413
RRIRFRPPRLPRPRPRPTVGPRP	-0.142
RRIRARPPRLPRPRPRPVFKPRP	0.115

Sequence	shrunken log2 fold change
RRIRLRPPRLPRPRPRPQFAPRP	0.0774
RRIRFRPPRLPRPRPRPSGEPRP	-0.135
RRIRFRPPRLPRPRPRPGIRPRP	-0.136
RRIRCRPPRLPRPRPRPENTPRP	-0.297
RRIRERPPRLPRPRPRPIMIPRP	-0.246
RRIRTRPPRLPRPRPRPMNKPRP	-0.373
RRIRRRPPRLPRPRPRPTHVPRP	0.427
RRIRGRPPRLPRPRPRPLRLPRP	1.34
RRIRGRPPRLPRPRPRPIIMPRP	-0.129
RRIRQRPPRLPRPRPRPNCQPRP	-0.055
RRIRCRPPRLPRPRPRPGLKPRP	-0.113
RRIRTRPPRLPRPRPRPFSEPRP	-0.0338
RRIRARPPRLPRPRPRPTMAPRP	0.6
RRIRVRPPRLPRPRPRPLIFPRP	-0.317
RRIRARPPRLPRPRPRPENSPRP	0.172
RRIRRRPPRLPRPRPRPFVQPRP	-0.0288
RRIRGRPPRLPRPRPRPLLRPRP	0.485
RRIRERPPRLPRPRPRPSKRPRP	-0.00769
RRIRWRPPRLPRPRPRPRPVPRP	0.728
RRIRERPPRLPRPRPRPTTKPRP	0.0648
RRIRLRPPRLPRPRPRPEDLPRP	0.14
RRIRKRPPRLPRPRPRPKDGPRP	0.0893
RRIRCRPPRLPRPRPRPSRDPRP	0.189
RRIRWRPPRLPRPRPRPGPAPRP	1.65
RRIRDRPPRLPRPRPRPTELPRP	0.103

Sequence	shrunken log2 fold change
RRIRRRPPRLPRPRPRPARMPRP	0.173
RRIRERPPRLPRPRPRPSCRPRP	-0.249
RRIRTRPPRLPRPRPRPDCSPRP	-0.239
RRIRTRPPRLPRPRPRPEREPRP	-0.00458
RRIRARPPRLPRPRPRPLCNPRP	-0.0439
RRIRPRPPRLPRPRPRPDFGPRP	-0.19
RRIRDRPPRLPRPRPRPGRSPRP	0.0526
RRIRKRPPRLPRPRPRPGAMPRP	0.639
RRIRLRPPRLPRPRPRPNVKPRP	-0.107
RRIRPRPPRLPRPRPRPRLHPRP	0.624
RRIRLRPPRLPRPRPRPCCFPRP	-0.0513
RRIRERPPRLPRPRPRPEWRPRP	0.334
RRIRQRPPRLPRPRPRPVNNPRP	-0.0612
RRIRSRPPRLPRPRPRPSRSPRP	0.179
RRIRERPPRLPRPRPRPIVTPRP	-0.158
RRIRFRPPRLPRPRPRPEVPPRP	-0.0248
RRIRKRPPRLPRPRPRPNSAPRP	0.393
RRIRDRPPRLPRPRPRPEYVPRP	-0.00373
RRIRKRPPRLPRPRPRPADTPRP	1.03
RRIRWRPPRLPRPRPRPQPFPRP	0.133
RRIRKRPPRLPRPRPRPALSPRP	0.253
RRIRERPPRLPRPRPRPYVLPRP	-0.125
RRIRRRPPRLPRPRPRPMVLPRP	-0.0254
RRIRVRPPRLPRPRPRPYPRPRP	0.0644
RRIRQRPPRLPRPRPRPDRQPRP	0.0104

Sequence	shrunken log2 fold change
RRIRHRPPRLPRPRPRPVTCPRP	0.0254
RRIRTRPPRLPRPRPRPGNEPRP	-0.000989
RRIRLRPPRLPRPRPRPDQQPRP	-0.174
RRIRPRPPRLPRPRPRPNLIPRP	-0.203
RRIRYRPPRLPRPRPRPIVLPRP	-0.213
RRIRIRPPRLPRPRPRPMTVPRP	0.0104
RRIRYRPPRLPRPRPRPADNPRP	-0.938
RRIRARPPRLPRPRPRPQPHPRP	0.347
RRIRARPPRLPRPRPRPGQEPRP	0.0636
RRIRMRPPRLPRPRPRPAKGPRP	0.271
RRIRVRPPRLPRPRPRPAKWPRP	0.153
RRIRYRPPRLPRPRPRPRVEPRP	-0.0337
RRIRRRPPRLPRPRPRPSKMPRP	0.335
RRIRWRPPRLPRPRPRPLTAPRP	0.436
RRIRFRPPRLPRPRPRPNAFPRP	0.00827
RRIRRRPPRLPRPRPRPFSNPRP	-0.0243
RRIRQRPPRLPRPRPRPDPFPRP	-0.401
RRIRHRPPRLPRPRPRPMLDPRP	0.0917
RRIRSRPPRLPRPRPRPRAMPRP	0.107
RRIRYRPPRLPRPRPRPKMWPRP	-0.113
RRIRLRPPRLPRPRPRPKAWPRP	-0.0115
RRIRWRPPRLPRPRPRPTFMPRP	-0.172
RRIRERPPRLPRPRPRPWLMPRP	-0.282
RRIRIRPPRLPRPRPRPTWSPRP	0.047
RRIRFRPPRLPRPRPRPPPWPRP	0.961
